The source of these data is publication doi:10.1101/2022.04.12.488087 (bioRxiv, 2022).

This test concerns the target SARS-CoV-1 wild type RBD (SARS-CoV-1 (P59594 / NP_828851.1, …)). The test can be described thus: crystal structure.

B1: nanobody Nb70 (VHH with 6xHis tag, for crystal structural analysis) (VHH)
VHH: QVQLVESGGGLVQAGGSLRLSCVASGRTFSRYAMGWFRQAPGKEREFVAVIEWDGGTSYYVDSVKGRFTISRDNAKNTVYLQMNSLKPEDTAVYYCAAGGNQYYSATYSIWNEYDFWGQGTQVTVSS
For B1, the binding result was “binds”.
